Reference: US20220010003A1 (Boehringer Ingelheim, published 2022)

Experiments:
[1] = biological target: T1, recombinant rat periostin (rat, UniProt A0A8I6AHK0 24-838); assay: BLI (Octet Red), NB0828 captured on anti-human Fc (AHC) biosensors, periostin titrated from 100 nM
T1 construct: also called RatPOSTN
Procedure: (§1) NB0828's binding affinity was determined across human, mouse, rat, and cyno species. NB0828 affinities were determined using the octet red system. Briefly, anti-human Fc (AHC) biosensors were used to capture NB0828, followed by association of titrating amounts of either recombinant human, mouse, rat, or cyno periostin (100 nM→0 nM; 1:2 dilutions). Recombinant human, mouse, and rat periostin was purchased commercially from R&D systems, whereas cyno periostin was made internally.

[2] = biological target: T2, recombinant mouse periostin (mouse, UniProt Q62009-2 24-811, limits assumed); assay: as above
T2 construct: also called MoPOSTN
T2 sequence (looked up): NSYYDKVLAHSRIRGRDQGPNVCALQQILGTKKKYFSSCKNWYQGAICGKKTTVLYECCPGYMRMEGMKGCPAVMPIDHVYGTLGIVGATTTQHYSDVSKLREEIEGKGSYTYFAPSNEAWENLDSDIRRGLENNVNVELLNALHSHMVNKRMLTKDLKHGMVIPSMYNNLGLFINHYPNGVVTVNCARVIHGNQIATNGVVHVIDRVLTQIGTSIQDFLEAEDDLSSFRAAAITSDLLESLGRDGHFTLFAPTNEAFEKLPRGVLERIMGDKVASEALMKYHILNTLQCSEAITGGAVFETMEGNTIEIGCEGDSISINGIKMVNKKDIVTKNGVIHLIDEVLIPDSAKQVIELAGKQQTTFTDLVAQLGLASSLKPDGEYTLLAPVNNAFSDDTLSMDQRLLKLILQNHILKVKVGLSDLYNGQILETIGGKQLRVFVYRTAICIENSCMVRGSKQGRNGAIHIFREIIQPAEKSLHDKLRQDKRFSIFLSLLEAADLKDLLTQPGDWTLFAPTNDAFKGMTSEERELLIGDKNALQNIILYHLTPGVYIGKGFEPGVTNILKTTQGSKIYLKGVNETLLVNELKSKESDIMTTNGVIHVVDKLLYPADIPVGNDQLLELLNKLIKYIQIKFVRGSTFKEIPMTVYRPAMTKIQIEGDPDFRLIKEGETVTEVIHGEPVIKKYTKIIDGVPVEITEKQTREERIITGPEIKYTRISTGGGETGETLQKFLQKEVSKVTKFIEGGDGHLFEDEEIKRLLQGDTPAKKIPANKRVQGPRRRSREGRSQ
Procedure: as §1

[3] = biological target: T3, recombinant cyno periostin (cyno, UniProt F6ZVK0 47-861 (rhesus entry)); assay: as above
T3 construct: also called CynoPOSTN
T3 sequence: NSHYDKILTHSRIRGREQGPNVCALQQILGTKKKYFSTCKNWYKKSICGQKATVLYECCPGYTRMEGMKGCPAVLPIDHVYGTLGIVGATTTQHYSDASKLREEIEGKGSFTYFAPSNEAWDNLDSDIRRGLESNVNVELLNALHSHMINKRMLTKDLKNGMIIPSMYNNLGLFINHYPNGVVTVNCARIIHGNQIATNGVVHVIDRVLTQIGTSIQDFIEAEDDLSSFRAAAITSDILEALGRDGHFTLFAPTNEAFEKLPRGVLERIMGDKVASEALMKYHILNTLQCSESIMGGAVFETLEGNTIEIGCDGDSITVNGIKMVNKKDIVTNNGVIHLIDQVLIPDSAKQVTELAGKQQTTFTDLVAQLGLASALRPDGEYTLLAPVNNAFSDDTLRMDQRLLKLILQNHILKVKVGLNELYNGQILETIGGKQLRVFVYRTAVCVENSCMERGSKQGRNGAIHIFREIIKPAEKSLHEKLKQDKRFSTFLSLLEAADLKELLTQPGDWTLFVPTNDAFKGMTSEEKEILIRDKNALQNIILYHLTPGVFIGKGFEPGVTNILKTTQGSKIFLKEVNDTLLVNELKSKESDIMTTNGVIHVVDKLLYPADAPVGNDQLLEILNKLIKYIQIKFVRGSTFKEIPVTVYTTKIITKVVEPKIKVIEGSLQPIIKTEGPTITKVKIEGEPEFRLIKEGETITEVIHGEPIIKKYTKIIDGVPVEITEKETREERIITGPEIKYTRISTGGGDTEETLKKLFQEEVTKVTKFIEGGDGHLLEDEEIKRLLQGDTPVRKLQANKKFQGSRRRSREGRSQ
Procedure: as §1

[4] = biological target: T4, recombinant human periostin (human, UniProt Q15063 22-836); assay: as above
T4 construct: also called HuPOSTN; POSTN
T4 sequence: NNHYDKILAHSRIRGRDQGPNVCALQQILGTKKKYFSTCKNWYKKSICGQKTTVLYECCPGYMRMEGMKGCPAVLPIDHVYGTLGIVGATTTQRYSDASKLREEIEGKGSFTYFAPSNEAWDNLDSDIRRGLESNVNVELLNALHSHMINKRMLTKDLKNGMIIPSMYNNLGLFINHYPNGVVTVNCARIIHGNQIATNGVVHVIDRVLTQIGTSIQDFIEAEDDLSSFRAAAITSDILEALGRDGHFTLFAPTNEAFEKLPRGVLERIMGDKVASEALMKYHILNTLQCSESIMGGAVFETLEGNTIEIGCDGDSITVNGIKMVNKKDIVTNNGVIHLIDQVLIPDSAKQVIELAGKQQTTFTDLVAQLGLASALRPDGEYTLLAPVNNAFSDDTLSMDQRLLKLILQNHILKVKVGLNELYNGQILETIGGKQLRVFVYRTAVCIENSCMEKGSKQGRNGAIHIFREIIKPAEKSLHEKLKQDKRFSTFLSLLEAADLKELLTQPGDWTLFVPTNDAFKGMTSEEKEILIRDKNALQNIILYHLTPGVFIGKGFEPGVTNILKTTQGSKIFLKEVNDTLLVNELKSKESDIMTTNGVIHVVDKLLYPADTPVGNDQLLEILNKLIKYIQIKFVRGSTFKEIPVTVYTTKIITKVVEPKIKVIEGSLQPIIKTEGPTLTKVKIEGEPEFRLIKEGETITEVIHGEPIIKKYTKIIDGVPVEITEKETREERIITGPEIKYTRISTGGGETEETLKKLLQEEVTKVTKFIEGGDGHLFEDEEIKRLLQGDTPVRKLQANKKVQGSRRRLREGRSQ
Procedure: as §1

[5] = biological target: T4, recombinant human periostin; assay: binding ELISA, periostin coated

- Kd [1]: 0.54 nM
- koff [1]: 0.000393 s⁻¹
- kon [1]: 727000 M⁻¹ s⁻¹
- Kd [2]: 0.114 nM
- koff [2]: 7.64e-05 s⁻¹
- kon [2]: 670000 M⁻¹ s⁻¹
- Kd [3]: 0.265 nM
- koff [3]: 0.000211 s⁻¹
- kon [3]: 794000 M⁻¹ s⁻¹
- Kd [4]: 0.351 nM
- koff [4]: 0.000246 s⁻¹
- kon [4]: 702000 M⁻¹ s⁻¹
- EC50 [5]: 0.12 nM
B1: NB0828 (antibody, V domains shown)
VH: QVQLVQSGAEVKKPGASVKVSCKASGYTFTSYGISWVRQAPGQGLEWMGWISAYNGNTNYAQKLQGRVTMTTDTSTSTAYMELRSLRSDDTAVYYCARDMLVVPFDYWGQGTLVTVSS
VL: QSVLTQSSSASGTPGQTVTVSCSGSSSDIGSNRVNWYQQLPGTAPKLLIYSNDQRPSGVPDRFSGSKSGTSASLAISGLQSADEADYYCAAWDDSLSTYVFGSGTKVTVL
